From PMC8053111, “MKRN3-mediated ubiquitination of Poly(A)-binding proteins modulates the stability and translation of GNRH1 mRNA in mammalian puberty” (Nucleic Acids Research, 2021)

Key:
PABPC1-His6 = molecular target: T1, PABPC1-His6 (human, UniProt P11940 1-636); assay: pull-down; GST pull-down: 20 μg purified Gst-MKRN or MKRN3 truncation, 20 μg PABP-His6 or truncation and Glutathione Sepharose 4B, 4°C overnight in 500 μl of 20 mM Tris-Cl, 100 mM NaCl, 5 mM MgCl2, 1 mM EDTA, 1 mM DTT, 0.5% NP-40, 10 μg/ml BSA, pH 7.5; five washes; Coomassie staining and anti-His immunoblot; conditions: both partners purified
T1 construct: PABPC1, human, full length; Written PABPC1-His6; also called His6-tagged PABPC1; full length PABPC1; source: E. coli BL21, purified (Ni beads, eluted with imidazole, dialyzed)

PABPC3-His6 = molecular target: T2, PABPC3-His6 (human, UniProt Q9H361 1-631); assay: as above; conditions: both partners purified
T2 construct: PABPC3, human; also called His6-tagged PABPC3; source: E. coli BL21, purified (Ni beads, eluted with imidazole, dialyzed)

PABPC4 = PABPC4 (human, UniProt Q13310 1-644); assay: EMSA; unmodified; EMSA Binding Buffer (Beyotime, 5x stock; composition, salt and pH not given), room temperature, 1 h; 8% polyacrylamide 0.5x TBE gel; conditions: protein: recombinant; tags: Flag-His6 (pET28a-PABPC4-Flag-His6); label: 32P (gamma-32P, stated at 3' end by T4 PNK); single strand
PABPC1 = PABPC1 (human, UniProt P11940 1-636); assay: as above; conditions: protein: recombinant; tags: Flag-His6 (pET28a-PABPC1-Flag-His6); label: 32P (gamma-32P, stated at 3' end by T4 PNK); single strand
Sequence of PABPC1 (P11940 whole entry): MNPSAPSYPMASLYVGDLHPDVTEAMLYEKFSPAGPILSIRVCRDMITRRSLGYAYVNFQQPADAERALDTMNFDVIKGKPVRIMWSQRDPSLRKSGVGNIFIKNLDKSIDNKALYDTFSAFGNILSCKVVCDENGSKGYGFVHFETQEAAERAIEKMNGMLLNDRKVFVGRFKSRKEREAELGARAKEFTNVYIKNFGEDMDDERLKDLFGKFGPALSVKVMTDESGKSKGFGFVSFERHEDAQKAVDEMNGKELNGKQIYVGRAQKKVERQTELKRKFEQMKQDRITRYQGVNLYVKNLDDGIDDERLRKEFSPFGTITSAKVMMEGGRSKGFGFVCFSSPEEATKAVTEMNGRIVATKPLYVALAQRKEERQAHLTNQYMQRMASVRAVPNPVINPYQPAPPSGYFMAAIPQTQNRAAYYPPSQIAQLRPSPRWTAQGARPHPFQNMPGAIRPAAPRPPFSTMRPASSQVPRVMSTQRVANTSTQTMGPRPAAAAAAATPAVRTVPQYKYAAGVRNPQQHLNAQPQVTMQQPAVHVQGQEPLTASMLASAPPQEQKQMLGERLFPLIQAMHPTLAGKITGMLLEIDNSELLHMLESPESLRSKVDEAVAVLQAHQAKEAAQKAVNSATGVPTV

T1 sequence (P11940 whole entry, the tested form may be a part): as the sequence (P11940 whole entry) above
Sequence of PABPC4 (Q13310 whole entry): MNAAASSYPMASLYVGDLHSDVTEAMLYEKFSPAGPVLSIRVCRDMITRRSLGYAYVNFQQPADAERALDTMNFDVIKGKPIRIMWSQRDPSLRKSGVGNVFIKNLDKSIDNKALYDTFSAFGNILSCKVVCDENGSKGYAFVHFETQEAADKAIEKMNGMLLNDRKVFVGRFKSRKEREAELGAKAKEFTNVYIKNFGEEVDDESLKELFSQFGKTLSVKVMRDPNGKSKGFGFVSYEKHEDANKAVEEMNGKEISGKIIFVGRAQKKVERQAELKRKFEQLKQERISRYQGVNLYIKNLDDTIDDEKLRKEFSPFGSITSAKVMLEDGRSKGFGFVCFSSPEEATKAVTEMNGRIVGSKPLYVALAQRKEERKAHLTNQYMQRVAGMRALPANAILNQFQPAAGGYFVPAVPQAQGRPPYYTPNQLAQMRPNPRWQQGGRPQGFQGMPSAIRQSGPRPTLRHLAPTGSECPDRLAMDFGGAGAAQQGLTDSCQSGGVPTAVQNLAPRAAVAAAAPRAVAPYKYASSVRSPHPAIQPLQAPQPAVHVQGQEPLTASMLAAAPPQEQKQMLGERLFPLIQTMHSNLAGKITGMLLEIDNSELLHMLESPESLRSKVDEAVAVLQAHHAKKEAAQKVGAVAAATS
T2 sequence (Q9H361 whole entry): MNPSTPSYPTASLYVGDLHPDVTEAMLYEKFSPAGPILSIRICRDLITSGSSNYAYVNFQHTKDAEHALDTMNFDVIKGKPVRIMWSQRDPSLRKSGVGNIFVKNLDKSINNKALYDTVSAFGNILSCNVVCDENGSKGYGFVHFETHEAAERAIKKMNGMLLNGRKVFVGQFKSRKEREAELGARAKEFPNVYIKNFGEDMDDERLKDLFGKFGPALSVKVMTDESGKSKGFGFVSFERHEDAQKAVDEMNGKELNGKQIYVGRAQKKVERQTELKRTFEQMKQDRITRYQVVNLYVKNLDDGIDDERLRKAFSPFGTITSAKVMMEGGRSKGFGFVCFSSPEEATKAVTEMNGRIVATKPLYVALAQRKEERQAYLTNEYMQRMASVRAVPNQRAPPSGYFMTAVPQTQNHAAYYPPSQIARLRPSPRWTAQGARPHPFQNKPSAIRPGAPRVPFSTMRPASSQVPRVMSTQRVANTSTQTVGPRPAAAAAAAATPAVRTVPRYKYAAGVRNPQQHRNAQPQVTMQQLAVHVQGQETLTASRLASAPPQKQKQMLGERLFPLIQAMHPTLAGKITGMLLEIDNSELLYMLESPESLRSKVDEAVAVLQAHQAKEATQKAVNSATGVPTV

B1: recombinant Gst-tagged MKRN3 (natural protein, human, UniProt Q13064 1-507, looked up)
chain: MEEPAAPSEAHEAAGAQAGAEAAREGVSGPDLPVCEPSGESAAPDSALPHAARGWAPFPVAPVPAHLRRGGLRPAPASGGGAWPSPLPSRSSGIWTKQIICRYYIHGQCKEGENCRYSHDLSGRKMATEGGVSPPGASAGGGPSTAAHIEPPTQEVAEAPPAASSLSLPVIGSAAERGFFEAERDNADRGAAGGAGVESWADAIEFVPGQPYRGRWVASAPEAPLQSSETERKQMAVGSGLRFCYYASRGVCFRGESCMYLHGDICDMCGLQTLHPMDAAQREEHMRACIEAHEKDMELSFAVQRGMDKVCGICMEVVYEKANPNDRRFGILSNCNHSFCIRCIRRWRSARQFENRIVKSCPQCRVTSELVIPSEFWVEEEEEKQKLIQQYKEAMSNKACRYFAEGRGNCPFGDTCFYKHEYPEGWGDEPPGPGGGSFSAYWHQLVEPVRMGEGNMLYKSIKKELVVLRLASLLFKRFLSLRDELPFSEDQWDLLHYELEEYFNLIL
notes: MKRN3, human, full length; Written Gst-MKRN3; also called Gst-MKRN3; full length MKRN3; source: E. coli BL21, purified (glutathione beads, eluted with reduced glutathione, dialyzed)
binding result (PABPC1-His6): binds
binding result (PABPC3-His6): binds

B2: Gst-MKRN3 middle region (126-295aa) (domain or fragment, human, UniProt Q13064 126-295, looked up)
chain: MATEGGVSPPGASAGGGPSTAAHIEPPTQEVAEAPPAASSLSLPVIGSAAERGFFEAERDNADRGAAGGAGVESWADAIEFVPGQPYRGRWVASAPEAPLQSSETERKQMAVGSGLRFCYYASRGVCFRGESCMYLHGDICDMCGLQTLHPMDAAQREEHMRACIEAHEK
notes: source: E. coli BL21, purified (glutathione beads, eluted with reduced glutathione, dialyzed)
binding result (PABPC1-His6): binds

B3: (A)30 RNA (ssRNA)
RNA: AAAAAAAAAAAAAAAAAAAAAAAAAAAAAA
binding result (PABPC4): binds
binding result (PABPC1): binds
